Laboratory results taken from paper doi:10.1101/2025.06.14.659678, “NanoBondy reacting through NeissLock anhydride allows covalent immune cell decoration” (bioRxiv, 2025).

Tests used:
[1] = target: T1, recombinant fragment of the d1 and d2 domains of human CD45 linked to an AviTag (Homo sapiens, biotin (site-specific, on the AviTag)); test: ELISA; nanobodies coated on a plate, incubated with the indicated concentration of biotinylated CD45d1d2; colorimetric detection, absorbance at 450 nm; conditions: both partners purified
T1 construct: human CD45, extracellular domains d1 and d2; Glycosylated; Construct limits may be in the supplementary Methods; also called CD45d1d2; biotinylated human CD45 domains 1 and 2; source: Expi293F cells, purified
T1 chain: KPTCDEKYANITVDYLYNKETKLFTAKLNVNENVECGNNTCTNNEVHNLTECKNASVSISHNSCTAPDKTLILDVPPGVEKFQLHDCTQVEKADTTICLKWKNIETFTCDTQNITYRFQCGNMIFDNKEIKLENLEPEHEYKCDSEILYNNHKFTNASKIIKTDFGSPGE

[2] = target: T2, endogenous human CD45 at the cell-surface (Homo sapiens, UniProt P08575-4); test: flow cytometry on cells; nanobodies incubated with YTS or NK92 cells (CD45+) or Expi293F cells (CD45-); detected with anti-VHH-Alexa Fluor 647; conditions: one partner purified
T2 construct: human CD45 as expressed on NK cell-lines and CD8+ T cells; also called endogenous CD45; source: endogenous, on YTS and NK92 cells and on primary human CD8+ T cells
T2 sequence (P08575 26-1306): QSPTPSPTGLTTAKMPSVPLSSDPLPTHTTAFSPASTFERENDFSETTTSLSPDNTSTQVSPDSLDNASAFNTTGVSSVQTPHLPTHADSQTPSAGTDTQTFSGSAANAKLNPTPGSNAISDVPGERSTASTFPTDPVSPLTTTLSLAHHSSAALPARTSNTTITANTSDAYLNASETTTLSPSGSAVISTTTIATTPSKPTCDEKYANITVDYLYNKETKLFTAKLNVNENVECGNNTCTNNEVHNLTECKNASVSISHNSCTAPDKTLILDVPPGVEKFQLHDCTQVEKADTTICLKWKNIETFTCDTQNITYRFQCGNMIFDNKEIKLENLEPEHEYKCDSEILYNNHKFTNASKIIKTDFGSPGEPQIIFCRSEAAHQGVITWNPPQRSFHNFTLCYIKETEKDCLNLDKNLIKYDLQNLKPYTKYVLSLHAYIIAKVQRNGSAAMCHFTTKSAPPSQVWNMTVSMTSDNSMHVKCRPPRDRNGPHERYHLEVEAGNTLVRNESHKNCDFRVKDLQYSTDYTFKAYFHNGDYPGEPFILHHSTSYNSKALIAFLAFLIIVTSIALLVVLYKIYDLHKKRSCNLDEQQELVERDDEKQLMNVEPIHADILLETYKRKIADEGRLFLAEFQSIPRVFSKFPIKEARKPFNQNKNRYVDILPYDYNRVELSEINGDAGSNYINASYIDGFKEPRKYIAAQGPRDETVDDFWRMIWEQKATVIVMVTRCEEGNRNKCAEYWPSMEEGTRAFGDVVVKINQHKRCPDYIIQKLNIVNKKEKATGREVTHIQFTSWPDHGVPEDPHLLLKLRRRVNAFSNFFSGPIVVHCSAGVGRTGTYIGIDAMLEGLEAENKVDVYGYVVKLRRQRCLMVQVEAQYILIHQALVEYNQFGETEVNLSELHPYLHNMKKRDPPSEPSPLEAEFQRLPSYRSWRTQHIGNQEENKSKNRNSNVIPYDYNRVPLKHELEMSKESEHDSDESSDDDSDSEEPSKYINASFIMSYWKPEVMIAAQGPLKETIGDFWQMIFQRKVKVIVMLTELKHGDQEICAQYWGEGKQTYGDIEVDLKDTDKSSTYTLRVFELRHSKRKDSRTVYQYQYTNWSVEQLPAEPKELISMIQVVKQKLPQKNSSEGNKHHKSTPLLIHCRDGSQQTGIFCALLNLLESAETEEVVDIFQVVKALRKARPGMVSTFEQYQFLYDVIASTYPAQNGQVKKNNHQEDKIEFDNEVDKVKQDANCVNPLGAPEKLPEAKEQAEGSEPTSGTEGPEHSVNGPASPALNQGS

binding result [1]: binds
binding result [2]: binds
B1: anti-CD45 nanobody 2H5 with C-terminal SpyTag003 (VHH)
VHH: QVQLQESGGGLVQTGGSLTLSCVASGGTFSSYAMGWFRQAPGKEREFVAAIGGSGDSTYYADSVKGRFTISRDNAKNSVYLQMNSLKPEDTAVYYCQADPTMFHKLYYGINPNEYDYWGQGTLVTVSS
notes: constructs are in the supplementary Methods; also called 2H5 nanobody
